Values of other authors as cited in publication PMC3144249.

Columns and labels:
[1] = biological target: arrestin-1 (Mus musculus) (UniProt P20443)
[2] = biological target: arrestin-1 dimer (Mus musculus) (UniProt P20443)

Kd [1] | Kd [2] | Substance
57.5 µM |  | arrestin-1 (from UniProt P20443)
 | 63.1 µM | arrestin-1 dimer (from UniProt P20443)
